The assay addresses CaV1.2 (α1C) L-type calcium channel subunit. As to the kind of experiment: cell-based or functional assay.

As for calcium channel β3 subunit, the Ca^2+ influx (fluorescence change after depolarization with 50 mM KCl) in transfected HEK 293 cells was found to be 3 fold.

Values taken from patent US20030170785A1.
